The results in this text go back to US20140193430A1.

For experiment [1], the target named is recombinant KIR2DL3 protein (entire extracellular domain, produced in E. coli, refolded) (human) (UniProt P43628). The experiment can be described thus: BIAcore, direct binding of second Ab to KIR2DL3 chip (field of first Ab 1-4F1). A general note: In SPR one partner is held on a chip, and binding of the other changes the refractive index at the surface.
For experiment [2] the target is unchanged. The experiment can be described thus: BIAcore, second Ab on KIR2DL3 chip with first Ab (competitor) 1-7F9 bound.
Experiment [3] has the same target. The experiment can be described thus: BIAcore, second Ab on KIR2DL3 chip with first Ab (competitor) 1-4F1 bound.
Experiment [4] shares this target. Kind of experiment: BIAcore competition on KIR2DL3 chip; first Ab gl183, second Ab (competitor) 1-6F1.
Experiment [5] shares this target. Kind of experiment: BIAcore, direct binding of second Ab to KIR2DL3 chip (field of first Ab 1-7F9).
Experiment [6] has the same target. Kind of experiment: BIAcore competition on KIR2DL3 chip; first Ab gl183, second Ab (competitor) 1-7F9.
For experiment [7] the target is unchanged. Kind of experiment: BIAcore, second Ab on KIR2DL3 chip with first Ab (competitor) 1-6F1 bound.
Experiment [8] shares this target. Kind of experiment: BIAcore competition on KIR2DL3 chip; first Ab gl183, second Ab (competitor) DF200.
The target is the same in experiment [9]. Kind of experiment: BIAcore competition on KIR2DL3 chip; first Ab gl183, second Ab (competitor) Pan2D.
Experiment [10] shares this target. Kind of experiment: BIAcore competition on KIR2DL3 chip; first Ab gl183, second Ab (competitor) 1-4F1.
For experiment [11] the target is unchanged. Kind of experiment: BIAcore, direct binding of second Ab to KIR2DL3 chip (field of first Ab 1-6F1).
The target in experiment [12] is KIR2DL1(R131W)-hFc (human) (UniProt P43626). The experiment can be described thus: ELISA, KIR2DL1(R131W)-hFc captured via goat anti-human antibodies, mAb titrated, peroxidase anti-mouse, A450 [panel DF200]. In general terms: ELISA stands for enzyme-linked immunosorbent assay.
For experiment [13], the target named is immobilized KIR2DS1 (UniProt Q14954). The experiment can be described thus: BIAcore, second Ab on KIR2DS1 chip with first Ab (competitor) 1-7F9 bound.
The target of experiment [14] is recombinant KIR2DL1 protein (entire extracellular domain, produced in E. coli, refolded) (human) (UniProt P43626). The experiment can be described thus: BIAcore competition on KIR2DL1 chip; first Ab DF200, second Ab (competitor) 1-6F5.
The target is the same in experiment [15]. The experiment can be described thus: BIAcore competition on KIR2DL1 chip; first Ab DF200, second Ab (competitor) Pan2D.
For experiment [16] the target is unchanged. Kind of experiment: BIAcore competition on KIR2DL1 chip; first Ab DF200, second Ab (competitor) EB6.
Experiment [17] has as its target recombinant KIR2DL3 protein (entire extracellular domain, produced in E. coli, refolded) (human) (UniProt P43628). The experiment can be described thus: BIAcore competition on KIR2DL3 chip; first Ab DF200, second Ab (competitor) 1-6F5.
Experiment [18] has the same target. Kind of experiment: BIAcore competition on KIR2DL3 chip; first Ab DF200, second Ab (competitor) 1-4F1.
Experiment [19] shares this target. Kind of experiment: BIAcore competition on KIR2DL3 chip; first Ab DF200, second Ab (competitor) 1-6F1.
The target is the same in experiment [20]. The experiment can be described thus: BIAcore competition on KIR2DL3 chip; first Ab DF200, second Ab (competitor) gl183.
The target of experiment [21] is recombinant KIR2DL1 protein (entire extracellular domain, produced in E. coli, refolded) (human) (UniProt P43626). The experiment can be described thus: BIAcore, direct binding of second Ab to KIR2DL1 chip (field of first Ab 1-7F9).
Experiment [22] deals with recombinant KIR2DL3 protein (entire extracellular domain, produced in E. coli, refolded) (human) (UniProt P43628). Kind of experiment: BIAcore competition on KIR2DL3 chip; first Ab DF200, second Ab (competitor) 1-7F9.
Experiment [23] shares this target. Kind of experiment: BIAcore, second Ab on KIR2DL3 chip with first Ab (competitor) 1-6F5 bound.
For experiment [24], the target named is recombinant KIR2DL1 protein (entire extracellular domain, produced in E. coli, refolded) (human) (UniProt P43626). The experiment can be described thus: BIAcore, direct binding of second Ab to KIR2DL1 chip (field of first Ab 1-6F5).
Experiment [25] has the same target. Kind of experiment: BIAcore competition on KIR2DL1 chip; first Ab DF200, second Ab (competitor) 1-4F1.
For experiment [26] the target is unchanged. Kind of experiment: BIAcore, second Ab on KIR2DL1 chip with first Ab (competitor) 1-6F1 bound.
Experiment [27] has the same target. Kind of experiment: BIAcore, direct binding of second Ab to KIR2DL1 chip (field of first Ab 1-6F1).
Experiment [28] concerns the target immobilized KIR2DS1 (UniProt Q14954). The experiment can be described thus: BIAcore competition on KIR2DS1 chip; first Ab DF200, second Ab (competitor) 1-4F1.
Experiment [29] concerns the target recombinant KIR2DL1 protein (entire extracellular domain, produced in E. coli, refolded) (human) (UniProt P43626). The experiment can be described thus: BIAcore, second Ab on KIR2DL1 chip with first Ab (competitor) 1-6F5 bound.
Experiment [30] concerns the target KIR2DL1-hFc (complete extra-cellular domain of KIR2DL1, amino acids H1-H224, wild-type, fused to human Fc) (human) (UniProt P43626). The experiment can be described thus: ELISA, KIR2DL1-hFc captured via goat anti-human antibodies, mAb titrated, peroxidase anti-mouse, A450 [panel DF200].
Experiment [31] addresses recombinant KIR2DL1 protein (entire extracellular domain, produced in E. coli, refolded) (human) (UniProt P43626). The experiment can be described thus: BIAcore competition on KIR2DL1 chip; first Ab DF200, second Ab (competitor) 1-6F1.
For experiment [32], the target named is immobilized KIR2DS1 (UniProt Q14954). The experiment can be described thus: BIAcore competition on KIR2DS1 chip; first Ab DF200, second Ab (competitor) Pan2D.
Experiment [33] has as its target recombinant KIR2DL3 protein (entire extracellular domain, produced in E. coli, refolded) (human) (UniProt P43628). The experiment can be described thus: BIAcore competition on KIR2DL3 chip; first Ab DF200, second Ab (competitor) Pan2D.
Experiment [34] has as its target recombinant KIR2DL1 protein (entire extracellular domain, produced in E. coli, refolded) (human) (UniProt P43626). The experiment can be described thus: BIAcore, second Ab on KIR2DL1 chip with first Ab (competitor) 1-7F9 bound.
Experiment [35] concerns the target recombinant KIR2DL3 protein (entire extracellular domain, produced in E. coli, refolded) (human) (UniProt P43628). The experiment can be described thus: BIAcore, direct binding of second Ab to KIR2DL3 chip (field of first Ab 1-6F5).
The target in experiment [36] is immobilized KIR2DS1 (UniProt Q14954). Kind of experiment: BIAcore, direct binding of second Ab to KIR2DS1 chip (field of first Ab 1-7F9).
Experiment [37] addresses recombinant KIR2DL1 protein (entire extracellular domain, produced in E. coli, refolded) (human) (UniProt P43626). Kind of experiment: BIAcore competition on KIR2DL1 chip; first Ab DF200, second Ab (competitor) 1-7F9.
Experiment [38] deals with immobilized KIR2DS1 (UniProt Q14954). Kind of experiment: BIAcore competition on KIR2DS1 chip; first Ab DF200, second Ab (competitor) 1-7F9.

Chain of recombinant KIR2DL1 protein (entire extracellular domain, produced in E. coli, refolded) (human) (P43626 22-245): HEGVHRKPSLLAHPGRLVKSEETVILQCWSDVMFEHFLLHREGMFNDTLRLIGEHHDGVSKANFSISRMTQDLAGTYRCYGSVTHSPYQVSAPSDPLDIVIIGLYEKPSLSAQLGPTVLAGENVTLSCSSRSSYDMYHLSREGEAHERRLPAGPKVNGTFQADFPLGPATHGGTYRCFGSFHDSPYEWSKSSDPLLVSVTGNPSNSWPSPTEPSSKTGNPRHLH
Chain of recombinant KIR2DL3 protein (entire extracellular domain, produced in E. coli, refolded) (human) (P43628 22-245): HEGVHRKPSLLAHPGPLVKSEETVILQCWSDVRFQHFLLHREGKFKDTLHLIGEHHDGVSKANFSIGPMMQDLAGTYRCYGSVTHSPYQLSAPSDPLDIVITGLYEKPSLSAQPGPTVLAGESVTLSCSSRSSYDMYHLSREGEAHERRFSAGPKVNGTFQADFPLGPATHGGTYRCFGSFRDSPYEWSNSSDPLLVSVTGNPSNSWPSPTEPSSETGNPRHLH
Chain of immobilized KIR2DS1 (Q14954 22-245 limits assumed): as the sequence (P43626 22-245) above, with T70K, V90L, L114P, P154T, D163N, H182R, K216E counted along it
Chain of KIR2DL1-hFc (complete extra-cellular domain of KIR2DL1, amino acids H1-H224, wild-type, fused to human Fc) (human) (P43626 22-245): as the sequence (P43626 22-245) above
Chain of KIR2DL1(R131W)-hFc (human) (P43626 22-245 R152W): as the sequence (P43626 22-245) above, with R131W counted along it

Regarding GL183 (IgG1 anti KIR2DL3) (antibody), the RU, direct binding (RU1) in experiment [1] amounted to 1240 RU; in [5] it was 800 RU; in experiment [11], 620 RU. In addition, the RU, binding with first Ab present (RU2) in experiment [2] is 200 RU; in experiment [3], 330 RU; in experiment [7], 570 RU. The % inhibition of second Ab binding by first Ab stood at 18% in [4]; 76% in experiment [6]; 8% in experiment [8]; 40% in experiment [9]; 75% in experiment [10].

For orientation: EC50 (read off the curve) means the concentration that produces a half-maximal response. High values mean weaker potency, low ones greater potency. Take “monoclonal antibody DF200 produced by hybridoma DF200”: the EC50 (read off the curve) in [12] and in experiment [30] was 20 nM in each case. Besides, the RU, direct binding (RU1) in [1] was 1140 RU; in experiment [21], 600 RU; in experiment [24], 350 RU; in [5], 770 RU; in experiment [27], 350 RU; in experiment [35], 800 RU. The RU, direct binding (RU1) in [36] stood at 900 RU; in experiment [11], 790 RU. In addition, the RU, binding with first Ab present (RU2) in experiment [2] was found to be 450 RU; in [13] it was 1090 RU; in experiment [3] it was 210 RU; in experiment [23], 760 RU; in experiment [26] it was 310 RU; in experiment [29] it was 290 RU. The RU, binding with first Ab present (RU2) in experiment [7] stood at 760 RU; in experiment [34] it was 545 RU. Besides, the % inhibition of second Ab binding by first Ab in experiment [14] amounted to 15%; in experiment [15] it was 80%; in experiment [16], 90%; in [17], 4%; in experiment [18], 75%; in experiment [19], 16%. The % inhibition of second Ab binding by first Ab is 20% in experiment [20]; 62% in experiment [22]; 92% in experiment [25]; 87% in experiment [28]; 15% in [31]; 70% in experiment [32]. Also, the % inhibition of second Ab binding by first Ab in [33] was determined as 75%; in [37], 27%; in experiment [38], 15%.
